We go through 3 molecules from US20040018191A1 (SCHERING, published 2004).

B1: 15H12 fully human monoclonal anti-IGFR1 antibody (antibody, IgG3, V domains shown)
VH: EVQLVQSGGGLVHPGGSLRLSCAASGFTFSSFAMHWVRQAPGKGLEWISVIDTRGATYYADSVKGRFTISRDNAKNSLYLQMNSLRAEDMAVYYCARLGNFYYGMDVWGQGTTVTVSS
VL: EIVLTQVPDFQSVTPKEKVTITCRASQSIGSSLHWYQQKPDQSPKLLIKYASQSLSGVPSRFSGSGSGTDFTLTINSLEAEDAAAYYCHQSSRLPHTFGGGTKVEIKR
B2: 19D12 fully human monoclonal anti-IGFR1 antibody (antibody, V domains shown)
VH: B1 VH
VL: B1 VL
B3: 1H3 fully human monoclonal anti-IGFR1 antibody (antibody, V domains shown)
VH: EVQLVQSGGGLVLPGGSLRLSCAGSGFTFSNYAMHWIRQAPGKGLEWVSAIGAGGDTYYADSVKGRFTISRDNAKDSLYLQMNSLRAEDMAVYYCARGRHRNWYYYNKDYWGQGTLVTVSS
VL: EIVLTQSPATLSLSPGERATLSCRASQSVSSFLAWYQQKPGQAPRLLIYDASNRAPGIPARFSGSGSGTDFTLTISSLEPEDFAVYYCQQRSNWPRWTFGQGTKVEIKR

For the assay, the target named is human IGFR1 on cells (HEK293 cells transfected with IGFR1 DNA; MCF-7 cells expressing endogenous IGFR1) (human, UniProt P08069 31-1367). Put plainly: cell-based or functional assay.
Sequence of human IGFR1 on cells (HEK293 cells transfected with IGFR1 DNA; MCF-7 cells expressing endogenous IGFR1) (P08069 31-1367 limits assumed): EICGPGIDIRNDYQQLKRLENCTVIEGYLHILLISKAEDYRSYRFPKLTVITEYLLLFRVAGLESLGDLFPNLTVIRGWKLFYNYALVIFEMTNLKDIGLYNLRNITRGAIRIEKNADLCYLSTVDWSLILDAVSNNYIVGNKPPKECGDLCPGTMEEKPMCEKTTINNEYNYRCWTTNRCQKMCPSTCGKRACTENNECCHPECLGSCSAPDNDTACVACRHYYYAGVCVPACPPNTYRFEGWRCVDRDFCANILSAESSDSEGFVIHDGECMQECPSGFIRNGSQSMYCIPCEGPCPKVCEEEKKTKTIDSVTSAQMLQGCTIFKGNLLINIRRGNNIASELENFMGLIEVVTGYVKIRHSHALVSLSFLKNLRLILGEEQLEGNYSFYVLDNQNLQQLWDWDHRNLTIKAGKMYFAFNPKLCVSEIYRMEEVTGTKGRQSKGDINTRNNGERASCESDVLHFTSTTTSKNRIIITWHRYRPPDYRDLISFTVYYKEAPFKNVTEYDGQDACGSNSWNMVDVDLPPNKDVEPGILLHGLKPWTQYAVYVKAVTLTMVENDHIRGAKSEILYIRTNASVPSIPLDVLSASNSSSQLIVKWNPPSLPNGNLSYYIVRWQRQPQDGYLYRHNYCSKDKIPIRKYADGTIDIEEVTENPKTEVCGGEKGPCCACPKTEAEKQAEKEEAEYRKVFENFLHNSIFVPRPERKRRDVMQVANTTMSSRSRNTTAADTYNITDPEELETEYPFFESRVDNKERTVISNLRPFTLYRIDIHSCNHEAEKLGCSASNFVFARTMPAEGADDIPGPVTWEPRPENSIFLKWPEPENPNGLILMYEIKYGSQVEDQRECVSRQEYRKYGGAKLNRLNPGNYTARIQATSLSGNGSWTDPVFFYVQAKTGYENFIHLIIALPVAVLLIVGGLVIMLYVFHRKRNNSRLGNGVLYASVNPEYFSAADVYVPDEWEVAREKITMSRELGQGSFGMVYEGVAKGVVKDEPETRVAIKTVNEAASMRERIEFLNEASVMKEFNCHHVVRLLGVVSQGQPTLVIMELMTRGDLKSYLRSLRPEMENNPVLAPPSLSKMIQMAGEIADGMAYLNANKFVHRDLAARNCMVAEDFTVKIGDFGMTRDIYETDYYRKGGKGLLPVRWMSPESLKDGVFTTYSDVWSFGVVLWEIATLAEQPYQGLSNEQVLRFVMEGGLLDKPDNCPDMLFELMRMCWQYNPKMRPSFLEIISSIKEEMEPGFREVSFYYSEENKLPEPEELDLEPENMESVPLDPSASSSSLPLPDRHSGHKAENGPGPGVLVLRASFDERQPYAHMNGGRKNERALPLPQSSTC
B1: the “IGFR1 autophosphorylation (IGF-I stimulated cells, immunoprecipitation and Western blot), IC50” value stood at 100 pM. For B2 the value was 100 pM; for B3, 100 pM.
